Measured values taken from US20220347267A1, “METHODS TO IMPROVE PATIENT RESPONSE TO IMMUNE CHECKPOINT INHIBITORS AND FUNCTIONAL TESTS TO PREDICT RESPONSE” (Biomarker Strategies, LLC, priority 2019, published 2022).

Tests used:
[1] = test system: various NSCLC, HNSCC, breast cancer, melanoma, colorectal cancer, and pancreatic cancer cell lines; experiment: PD-L1 western blot after modulators, summary over all samples; assay type: cell-based, human; conditions: depending on the sample, summary of Table 3
Source text: Cell lines were acquired from ATCC, Sigma, or DSMZ. Human non-small cell lung carcinoma (NSCLC) cell lines H292 (ATCC no. CRL-1848.), H1299 (ATCC no. CRL-5803), H520 (ATCC no. CRL-5811), CALU6 (ATCC no. HTB-56), H1975 (ATCC no. CRL-5908), H460 (ATCC no. HTB-177), H2126 (ATCC no. CCL-256), H1650 (ATCC no. CRL-5883), and H2087 (ATCC no. CRL-5922) were used for this experiment along with head and neck squamous cell carcinoma (HNSCC) cell lines BHY (DSMZ ACC 404), CAL27 (ATCC no. CRL-2095), KYSE410 (Sigma), and A253 (ATCC no. HTB-41), melanoma cell lines A375 (ATCC no. CRL-1619), COL0853 (Sigma), and MM127 (Sigma) pancreatic cancer cell lines BXPC3 (ATCC no. CRL-1687), colorectal cancer cell lines […], HCT116 (ATCC no. CCL-247EMT), and breast cancer cell lines BT549 (ATCC no. HTB-122), BT20 (ATCC no. HTB-19), and T47D (ATCC no. HTB-133). Cells were maintained in manufacturer-recommended conditions at 37° C. inside humidified 5% CO2 incubators. Sub-cultivation and harvesting for all cell lines were performed using Accutase (GIBCO Life Technologies; cat. no. A1110501) at 37° C. for 10 minutes. Cell viability was measured using trypan blue exclusion staining in conjunction with the Countess II Automated Cell Counter (Thermo Fischer Scientific; cat. no. AMQAX1000). Measurements were made in duplicate and the average number of viable cells was recorded prior to experiments.
T7039), and IL-10 (50 ng/ml; Sigma Aldrich cat. no. SRP3071) were administered to cell lines for various times including 30 minutes, 3 hour, and 24 hour time intervals prior to cell lysis and protein extraction.
To determine the effects of the aforementioned molecules on the modulation of PD-L1, we selected various NSCLC, HNSCC, breast cancer, melanoma, colorectal cancer, and pancreatic cancer cell lines as examples. Other diseases or cell lines could be used readily as could more complex samples such as cells isolated from xenografts and clinical samples. Cells were plated, for three different time points (30 minutes, 3 hours, and 24 hours), inside 6-well petri dishes with 2 mL of appropriate medium. Plates were incubated for 24 hours in 5% CO2 incubators at 37° C. After 24 hours, each 6-well plate was washed with PBS (Gibco Life Technologies, cat. no. 10010023) followed by fresh media being added along with each cell line's vehicle control or appropriate modulator for each specific time point, and were placed in CO2 incubators until their modulation time point was reached. Other conditions can be readily used, such as processing on automated systems such as SnapPath. At the end of each time point, while keeping plates on ice, cell lysis was conducted by aspirating culture medium from each plate, washing of each plate three times with 5 ml of cold PBS (Gibco Life Technologies, cat. no. 10010023) and culminated with the addition of cold 1× lysis buffer containing (Cell Signaling, cat. no. 9803 S) protease inhibitor cocktail (Cell Signaling, cat. no. 5871S), phosphatase inhibitor cocktail (Cell Signaling, cat. no. 5870S), and PMSF (Fisher Scientific, cat. no. ICN19538101). Plates were then placed on ice for ten minutes, swirling each plate intermittently. Aliquots of protein lysates were prepared and then stored at −80° C. until protein quantification and Western blot analysis was to be conducted. The protein concentration of each lysate was analyzed by using the Pierce 660 Protein Assay Reagent (Thermo Fisher Scientific, cat. no. 22660) and testing of each sample was conducted in duplicate. Two μg of protein was then loaded per lane into 10% Midi-PROTEAN TGX Precast Gels (Bio Rad, cat. no. 5671034) along with Kaleidoscope Prestained Protein Standard (BioRad, cat. no. 1610375) which ran at 220V for 45 minutes. Proteins were transferred to mini-PVDF membranes (BioRad, cat. no. 1704156) in 3 minutes using the Trans-Blot Turbo Transfer System (BioRad, cat. no. 1704150EDU).

[2] = test system: SKMES1 cells; experiment: Western blot of secreted and intact PDL1 in media and lysate; assay type: cell-based, human; conditions: 10 ng/mL IFNg for 24 h, concentrated media and lysate, antibody clone E1J2J
Experimental: Different forms of PDL1 can be expressed at baseline as well as after modulation, and the abundance of each form will impact response to therapy. The two major forms are membrane bound and soluble (secreted or intracellular compartments). The relative ratios of the forms, and their cellular locations, can be changed by a modulator and will require different strategies for optimal ICI therapy. As way of example, the cell line SKMES1 was treated with vehicle or 10 ng/mL IFNg for 24 h. After treatment, media was collected and concentrated using an Amicon ultra 0.5 mL centrifugal filter with a 10 kDa cutoff. The retentate, containing proteins >10 kDa, was recovered in a clean tube at 14000 rpm for 5 min. Simultaneously, lysates of the same cells were made. PDL1 was then detected using 10% Tris-Glycine SDS gels and PVDF membranes. The western blot was carried out using 5% non-fat dry milk in TBST for 1h, followed by incubation with primary antibody against PDL1 (clone E1J2J; raised to the extracellular portion of PDL1) in 2% BSA for overnight, then anti-rabbit HRP secondary antibody before using a chemiluminescent reagent (Bio-Rad). […] Thus, by using westerns where the intact and secreted forms of PDL1 are first resolved by MW and different types of sample/resource material (media vs lysate or blood/plasma vs tumor), the response to therapy can be predicted. […]

B1: IFNγ: human IFNγ, modulator (10 ng/ml; Sigma Aldrich) (protein, UniProt P01579 24-161, looked up)
Interferon gamma: QDPYVKEAENLKKYFNAGHSDVADNGTLFLGILKNWKEESDRKIMQSQIVSFYFKLFKNFKDDQSIQKSVETIKEDMNVKFFNSNKKKRDDFEKLTNYSVTDLNVQRKAIHELIQVMAELSPAAKTGKRKRSQMLFRG
[1]
  regulation of PD-L1 across samples: only led to upregulation
[2]
  expression of secreted and intact PDL1: detected the expression of secreted and intact PDL1
